Patent US20240116985A1 (published 2024)
Starred links: 1 amine or outer side, 2 acyl side, 3 side chain; linkers in the order of their positions; H or OH if unused. Positions of bridges follow the written chain, without caps; N, C: chain ends. Non-standard residues stand in square brackets, D forms with d. Primed or numbered codes have the meaning given here. B5(5) = 2,2-bis(4-pentenyl)glycine, 2-amino-2-(pent-4-en-1-yl)hept-6-enoic acid (stitching residue), C=CCCCC(CCCC=C)(N[*:1])C(=O)[*:2]; B5(6) = 2-amino-2-(pent-4-en-1-yl)hept-6-enoic acid (bis(4-pentenyl)glycine), stitching residue, C=CCCCC(CCCC=C)(N[*:1])C(=O)[*:2]; TfeGA = (S)-2-amino-3-((carboxymethyl)(2,2,2-trifluoroethyl)amino)propanoic acid, O=C([C@H](CN(CC(=O)[*:3])CC(F)(F)F)N[*:1])[*:2]; Bta = N[C@@H](Cc1csc2ccccc12)C(=O)O; αAllylPro = C=CC[C@@]1(C(=O)O)CCCN1; tBuAla = CC(C)(C)C[C@H](N)C(=O)O; S8 = C=CCCCCCC[C@](C)(N)C(=O)O

T1: full-length beta-Catenin (Uniprot ID P35222) (Homo sapiens (Human), UniProt P35222 1-781)
T1 construct: also called bCat; B-Catenin
T1 sequence: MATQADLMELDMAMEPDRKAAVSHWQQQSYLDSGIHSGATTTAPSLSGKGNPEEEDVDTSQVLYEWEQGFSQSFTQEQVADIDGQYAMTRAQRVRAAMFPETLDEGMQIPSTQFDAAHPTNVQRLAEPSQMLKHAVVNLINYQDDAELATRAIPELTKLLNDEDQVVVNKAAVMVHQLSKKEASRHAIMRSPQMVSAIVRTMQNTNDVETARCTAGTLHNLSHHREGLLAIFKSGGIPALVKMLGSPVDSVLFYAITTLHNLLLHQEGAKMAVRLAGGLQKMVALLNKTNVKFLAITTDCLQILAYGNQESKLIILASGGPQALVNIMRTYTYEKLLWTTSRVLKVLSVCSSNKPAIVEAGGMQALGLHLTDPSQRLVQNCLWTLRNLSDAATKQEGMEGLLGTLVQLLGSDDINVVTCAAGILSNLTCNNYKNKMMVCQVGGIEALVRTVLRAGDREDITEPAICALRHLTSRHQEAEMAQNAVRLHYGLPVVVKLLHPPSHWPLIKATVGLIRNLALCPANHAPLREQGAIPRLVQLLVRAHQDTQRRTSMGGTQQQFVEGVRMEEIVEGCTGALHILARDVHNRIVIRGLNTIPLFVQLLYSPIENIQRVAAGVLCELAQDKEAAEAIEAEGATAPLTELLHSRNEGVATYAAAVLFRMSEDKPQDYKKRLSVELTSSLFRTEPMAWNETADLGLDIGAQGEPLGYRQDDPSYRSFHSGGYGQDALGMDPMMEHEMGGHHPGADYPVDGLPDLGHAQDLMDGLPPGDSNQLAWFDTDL

T2: B-cat-Halo (NanoBRET construct expressed in HEK293 cells) (UniProt P35222 1-781)
T2 sequence (looked up): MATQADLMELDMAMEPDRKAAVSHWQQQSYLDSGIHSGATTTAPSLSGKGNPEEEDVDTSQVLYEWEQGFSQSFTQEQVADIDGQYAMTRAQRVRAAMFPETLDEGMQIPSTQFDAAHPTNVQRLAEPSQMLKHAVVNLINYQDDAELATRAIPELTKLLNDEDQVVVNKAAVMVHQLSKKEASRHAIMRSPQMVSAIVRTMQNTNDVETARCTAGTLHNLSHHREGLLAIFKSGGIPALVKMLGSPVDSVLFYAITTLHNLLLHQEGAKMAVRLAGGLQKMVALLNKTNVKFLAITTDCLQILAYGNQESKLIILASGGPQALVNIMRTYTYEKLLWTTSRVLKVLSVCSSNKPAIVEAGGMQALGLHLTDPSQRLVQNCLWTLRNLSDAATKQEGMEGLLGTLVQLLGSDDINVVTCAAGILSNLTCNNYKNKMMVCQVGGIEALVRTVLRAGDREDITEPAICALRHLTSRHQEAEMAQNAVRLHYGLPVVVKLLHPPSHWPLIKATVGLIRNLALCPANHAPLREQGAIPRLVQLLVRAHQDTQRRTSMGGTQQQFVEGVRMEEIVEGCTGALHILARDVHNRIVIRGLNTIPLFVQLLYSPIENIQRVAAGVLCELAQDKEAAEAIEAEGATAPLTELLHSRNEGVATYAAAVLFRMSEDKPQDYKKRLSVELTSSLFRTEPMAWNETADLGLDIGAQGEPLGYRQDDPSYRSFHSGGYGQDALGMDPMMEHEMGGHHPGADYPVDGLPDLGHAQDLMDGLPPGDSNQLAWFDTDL

T3: beta-catenin in DLD1 TCF/LEF luciferase reporter cells (UniProt P35222 1-781)
T3 sequence (looked up): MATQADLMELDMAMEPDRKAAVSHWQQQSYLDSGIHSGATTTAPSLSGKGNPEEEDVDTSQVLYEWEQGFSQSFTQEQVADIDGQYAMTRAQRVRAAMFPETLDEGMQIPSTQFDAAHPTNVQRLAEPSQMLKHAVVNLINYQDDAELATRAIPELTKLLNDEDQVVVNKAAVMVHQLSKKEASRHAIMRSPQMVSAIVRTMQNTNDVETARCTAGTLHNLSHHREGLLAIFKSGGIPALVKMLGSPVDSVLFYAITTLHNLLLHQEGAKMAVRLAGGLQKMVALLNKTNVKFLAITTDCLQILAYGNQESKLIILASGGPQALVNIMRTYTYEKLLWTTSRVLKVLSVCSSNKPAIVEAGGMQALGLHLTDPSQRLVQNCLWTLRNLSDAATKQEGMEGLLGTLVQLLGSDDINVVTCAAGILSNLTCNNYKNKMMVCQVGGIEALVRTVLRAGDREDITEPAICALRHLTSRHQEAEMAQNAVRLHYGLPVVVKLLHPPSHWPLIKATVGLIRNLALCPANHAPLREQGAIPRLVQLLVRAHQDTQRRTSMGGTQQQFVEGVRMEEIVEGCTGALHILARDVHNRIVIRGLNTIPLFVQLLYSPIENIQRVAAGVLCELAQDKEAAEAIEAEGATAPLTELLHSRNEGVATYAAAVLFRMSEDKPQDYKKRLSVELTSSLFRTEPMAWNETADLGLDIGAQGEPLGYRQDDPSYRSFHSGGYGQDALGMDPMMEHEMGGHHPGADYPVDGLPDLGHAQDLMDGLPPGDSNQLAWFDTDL

T4: B-cat-Halo (beta-catenin HaloTag NanoBRET construct expressed in HEK293 cells) (UniProt P35222 1-781)
T4 sequence (looked up): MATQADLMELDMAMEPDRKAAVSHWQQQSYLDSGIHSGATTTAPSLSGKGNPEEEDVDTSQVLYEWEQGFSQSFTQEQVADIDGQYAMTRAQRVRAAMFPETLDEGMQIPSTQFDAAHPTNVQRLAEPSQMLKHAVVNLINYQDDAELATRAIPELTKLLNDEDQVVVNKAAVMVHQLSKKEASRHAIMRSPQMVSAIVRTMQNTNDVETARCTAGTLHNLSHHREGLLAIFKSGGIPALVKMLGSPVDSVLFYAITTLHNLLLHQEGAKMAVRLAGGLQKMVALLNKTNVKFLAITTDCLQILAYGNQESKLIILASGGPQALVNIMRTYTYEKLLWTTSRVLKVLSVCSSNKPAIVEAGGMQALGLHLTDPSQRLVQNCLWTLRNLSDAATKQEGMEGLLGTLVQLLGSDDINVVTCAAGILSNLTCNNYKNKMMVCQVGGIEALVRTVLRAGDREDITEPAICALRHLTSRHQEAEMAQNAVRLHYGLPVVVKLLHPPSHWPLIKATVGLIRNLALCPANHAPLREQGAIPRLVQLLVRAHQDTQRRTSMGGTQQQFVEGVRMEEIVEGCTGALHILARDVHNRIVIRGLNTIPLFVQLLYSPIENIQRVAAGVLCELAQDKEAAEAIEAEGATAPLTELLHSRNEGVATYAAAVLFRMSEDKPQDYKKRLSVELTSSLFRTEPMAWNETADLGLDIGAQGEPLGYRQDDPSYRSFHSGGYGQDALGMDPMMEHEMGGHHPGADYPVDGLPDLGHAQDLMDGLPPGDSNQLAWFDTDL


Columns and labels:
[1] = target: T1, full-length beta-Catenin (Uniprot ID …); test: FP competition: full-length beta-catenin 10 nM + 5FAM-TCF4(10-53) 10 nM
Method in brief: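 Data fitted to 1:1 binding model with hill slope from duplicate reads taken after 60 minutes at 20° C. in the dark.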

[2] = target: T2, B-cat-Halo (NanoBRET construct …); test: cell-based or functional assay
[3] = target: T3, beta-catenin in DLD1 TCF/LEF luciferase …; test: cell-based or functional assay
[4] = target: T4, B-cat-Halo (beta-catenin HaloTag …); test: cell-based or functional assay

| IC50 [1] [nM] | NanoBRET Abs IC50 [2] [µM] | DLD1 4% Abs IC50 [3] [µM] | NanoBRET Abs IC50 [4] [µM] | Binder |
| --- | --- | --- | --- | --- |
| 23 | 4.9 | 9.4 |  | Ac-[αAllylPro]DL[B5(6)]DEAAFQ[S8]F[Bta]Q-NH2 (staple 1-4, 4-11, Stapled peptide composition) [I-505] |
|  |  |  | 11.9 | Ac-[αAllylPro]D[tBuAla][B5(5)]D[TfeGA]AAFN[S8]F[Bta]Q-NH2 (staple 1-4, 4-11) [I-703] |
